From IntAct's records for PubMed 24473200

B1: Nucleotide exchange factor SIL1 (Homo sapiens), Q9H173 (parent)
chain: MAPQSLPSSRMAPLGMLLGLLMAACFTFCLSHQNLKEFALTNPEKSSTKETERKETKAEEELDAEVLEVFHPTHEWQALQPGQAVPAGSHVRLNLQTGEREAKLQYEDKFRNNLKGKRLDINTNTYTSQDLKSALAKFKEGAEMESSKEDKARQAEVKRLFRPIEELKKDFDELNVVIETDMQIMVRLINKFNSSSSSLEEKIAALFDLEYYVHQMDNAQDLLSFGGLQVVINGLNSTEPLVKEYAAFVLGAAFSSNPKVQVEAIEGGALQKLLVILATEQPLTAKKKVLFALCSLLRHFPYAQRQFLKLGGLQVLRTLVQEKGTEVLAVRVVTLLYDLVTEKMFAEEEAELTQEMSPEKLQQYRQVHLLPGLWEQGWCEITAHLLALPEHDAREKVLQTLGVLLTTCRDRYRQDPQLGRTLASLQAEYQVLASLELQDGEDEGYFQELLGSVNSLLKELR

Variants of: B1
Conditions: with bip_human HSPA5, P11021
bip_human HSPA5, P11021, sequence (P11021 whole entry): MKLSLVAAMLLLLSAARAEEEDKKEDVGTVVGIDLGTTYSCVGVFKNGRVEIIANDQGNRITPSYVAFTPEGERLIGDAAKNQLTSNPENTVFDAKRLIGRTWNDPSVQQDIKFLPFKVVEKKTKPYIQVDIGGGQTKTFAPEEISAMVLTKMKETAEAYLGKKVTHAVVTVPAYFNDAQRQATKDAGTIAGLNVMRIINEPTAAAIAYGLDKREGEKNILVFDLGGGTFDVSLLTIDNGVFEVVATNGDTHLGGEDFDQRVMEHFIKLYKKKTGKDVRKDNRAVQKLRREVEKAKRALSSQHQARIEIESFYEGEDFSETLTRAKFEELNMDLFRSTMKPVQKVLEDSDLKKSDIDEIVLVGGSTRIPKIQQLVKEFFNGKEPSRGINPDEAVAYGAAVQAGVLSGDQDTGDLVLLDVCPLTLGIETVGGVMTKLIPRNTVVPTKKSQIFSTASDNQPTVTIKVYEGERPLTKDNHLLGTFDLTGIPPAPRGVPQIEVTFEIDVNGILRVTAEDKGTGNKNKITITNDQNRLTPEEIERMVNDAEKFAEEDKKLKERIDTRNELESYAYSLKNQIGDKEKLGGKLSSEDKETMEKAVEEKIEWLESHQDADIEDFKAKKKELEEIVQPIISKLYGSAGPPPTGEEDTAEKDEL

| Variant | effect of a mutation on the interaction |
| --- | --- |
| L457P | decreasing interaction strength |
